Reference: patent US20160355587A1 (published 2016)

T1: human CD166 protein (human, UniProt Q13740 28-526)
T1 chain: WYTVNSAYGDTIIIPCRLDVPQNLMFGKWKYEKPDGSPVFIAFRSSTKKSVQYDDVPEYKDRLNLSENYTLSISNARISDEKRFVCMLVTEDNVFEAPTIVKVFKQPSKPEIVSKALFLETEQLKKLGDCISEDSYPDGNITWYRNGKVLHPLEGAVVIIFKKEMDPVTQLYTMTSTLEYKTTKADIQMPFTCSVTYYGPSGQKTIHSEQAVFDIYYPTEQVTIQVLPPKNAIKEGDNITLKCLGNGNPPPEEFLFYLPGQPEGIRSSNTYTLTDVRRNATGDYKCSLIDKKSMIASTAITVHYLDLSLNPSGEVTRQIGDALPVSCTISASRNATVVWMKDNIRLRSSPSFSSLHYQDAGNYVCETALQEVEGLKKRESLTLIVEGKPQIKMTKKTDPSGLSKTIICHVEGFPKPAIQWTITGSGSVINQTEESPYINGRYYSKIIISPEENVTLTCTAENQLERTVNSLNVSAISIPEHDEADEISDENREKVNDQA


Target: T1, human CD166 protein
Assay: FACS; apparent Kd

Row | Kd [nM] | Binder
1 | 2.88 | CD166-M9_vk3a/HcB (antibody, V domains shown) VH: QITLKESGPTLVKPTQTLTLTCTFSGFSLSTYGMGVGWIRQPPGKALEWLANIWWSEDKHYSPSLKSRLTITKDTSKNQVVLTMTNMDPVDTATYYCVQIDYGNDYAFTYWGQGTLVTVSS VL: DIVMTQSPLSLPVTPGEPASISCRSSQSLLHSNGITYLYWYLQKPGQSPQLLIYQMSNRASGVPDRFSGSGSGTDFTLKISRVEAEDVGVYYCAQNLELPYTFGQGTKLEIK
2 | 2.5 | CD166-M9_vK2/HcC (antibody, V domains shown) VH: QITLKESGPTLVKPTQTLTLTCTFSGFSLSTYGMGVGWIRQPPGKALEWLANIWWSEDKHYSPSLKSRLTITKDTSKNQVVLTITNVDPVDTATYYCVQIDYGNDYAFTYWGQGTLVTVSS VL: DIVMTQSPLSLPVTPGEPASISCRSSKSLLHSNGITYLYWYLQKPGQSPQLLIYQMSNLASGVPDRFSSSGSGTDFTLKISRVEAEDVGVYYCAQNLELPYTFGQGTKLEIK
3 | 3.19 | CD166-M9_vK3b/HcC (antibody, V domains shown) VH: QITLKESGPTLVKPTQTLTLTCTFSGFSLSTYGMGVGWIRQPPGKALEWLANIWWSEDKHYSPSLKSRLTITKDTSKNQVVLTITNVDPVDTATYYCVQIDYGNDYAFTYWGQGTLVTVSS VL: DIVMTQSPLSLPVTPGEPASISCRSSQSLLHSNGITYLYWYLQKPGQSPQLLIYQMSNRASGVPDRFSSSGSGTDFTLKISRVEAEDVGVYYCAQNLELPYTFGQGTKLEIK
4 | 3.76 | CD166-M9_vK3a/HcC (antibody, V domains shown) VH: QITLKESGPTLVKPTQTLTLTCTFSGFSLSTYGMGVGWIRQPPGKALEWLANIWWSEDKHYSPSLKSRLTITKDTSKNQVVLTITNVDPVDTATYYCVQIDYGNDYAFTYWGQGTLVTVSS VL: DIVMTQSPLSLPVTPGEPASISCRSSQSLLHSNGITYLYWYLQKPGQSPQLLIYQMSNRASGVPDRFSGSGSGTDFTLKISRVEAEDVGVYYCAQNLELPYTFGQGTKLEIK
5 | 2.61 | CD166-M9_vK3b/HcB (antibody, V domains shown) VH: QITLKESGPTLVKPTQTLTLTCTFSGFSLSTYGMGVGWIRQPPGKALEWLANIWWSEDKHYSPSLKSRLTITKDTSKNQVVLTMTNMDPVDTATYYCVQIDYGNDYAFTYWGQGTLVTVSS VL: DIVMTQSPLSLPVTPGEPASISCRSSQSLLHSNGITYLYWYLQKPGQSPQLLIYQMSNRASGVPDRFSSSGSGTDFTLKISRVEAEDVGVYYCAQNLELPYTFGQGTKLEIK

These binders were tested against CD166-M9_chimera (assay: FACS; apparent Kd).

Row | Kd [nM] | Binder
6 | 1.12 | human CD166 (receptor) WYTVNSAYGDTIIIPCRLDVPQNLMFGKWKYEKPDGSPVFIAFRSSTKKSVQYDDVPEYKDRLNLSENYTLSISNARISDEKRFVCMLVTEDNVFEAPTIVKVFKQPSKPEIVSKALFLETEQLKKLGDCISEDSYPDGNITWYRNGKVLHPLEGAVVIIFKKEMDPVTQLYTMTSTLEYKTTKADIQMPFTCSVTYYGPSGQKTIHSEQAVFDIYYPTEQVTIQVLPPKNAIKEGDNITLKCLGNGNPPPEEFLFYLPGQPEGIRSSNTYTLTDVRRNATGDYKCSLIDKKSMIASTAITVHYLDLSLNPSGEVTRQIGDALPVSCTISASRNATVVWMKDNIRLRSSPSFSSLHYQDAGNYVCETALQEVEGLKKRESLTLIVEGKPQIKMTKKTDPSGLSKTIICHVEGFPKPAIQWTITGSGSVINQTEESPYINGRYYSKIIISPEENVTLTCTAENQLERTVNSLNVSAISIPEHDEADEISDENREKVNDQA
